The values below come from patent US20180155451A1 (published 2018).

The target in test [1] is T1, FcgRIIaH (human, UniProt P12318 34-217).
T1 construct: extracellular domain; Soluble extracellular domain with C-terminal His tag; also called FcγRIIa H; FcγRIIa type H; not shown: His tag attached to the C terminus
T1 sequence (looked up): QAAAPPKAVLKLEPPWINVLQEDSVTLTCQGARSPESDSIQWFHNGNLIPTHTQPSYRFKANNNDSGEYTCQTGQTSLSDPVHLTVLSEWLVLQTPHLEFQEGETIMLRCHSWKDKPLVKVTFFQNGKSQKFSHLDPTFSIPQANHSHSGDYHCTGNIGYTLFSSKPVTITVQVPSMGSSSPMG
Kind of test: SPR (Biacore); KD of H240-Kn120/H240-Hl068/L73-k0 divided by KD of this antibody. Here is the method: (§1) Analysis of interaction between obj ective antibody and the FcγR was carried out using Biacore T100 (GE Healthcare), Biacore T200, Biacore A100, and Biacore 4000.
Background: Surface plasmon resonance follows binding to a sensor surface in real time, without labels.

The target of test [2] is T2, FcgRIIb (human, UniProt P31994 43-217).
T2 construct: extracellular domain; Soluble extracellular domain with C-terminal His tag; also called FcγRIIb; CD32B; not shown: His tag attached to the C terminus
T2 sequence (looked up): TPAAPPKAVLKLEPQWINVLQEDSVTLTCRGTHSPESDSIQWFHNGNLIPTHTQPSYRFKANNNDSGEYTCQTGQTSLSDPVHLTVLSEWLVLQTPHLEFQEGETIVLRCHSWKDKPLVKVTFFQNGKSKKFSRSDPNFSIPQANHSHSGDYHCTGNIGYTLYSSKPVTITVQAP
The test is described as above. On the procedure:
as §1

Test [3] addresses T3, FcgRIIIaV (human, UniProt P08637 17-208).
T3 construct: extracellular domain; Soluble extracellular domain with C-terminal His tag; polymorphic site made after J. Clin. Invest; also called FcγRIIIa V; not shown: His tag attached to the C terminus
The description is as above. On the procedure:
as §1

The target in test [4] is T4, FcgRIIIaF (human, UniProt P08637 17-208).
T4 construct: extracellular domain; Soluble extracellular domain with C-terminal His tag; polymorphic site made after J. Clin. Invest; also called FcγRIIIa F; not shown: His tag attached to the C terminus
T4 sequence (P08637 17-208): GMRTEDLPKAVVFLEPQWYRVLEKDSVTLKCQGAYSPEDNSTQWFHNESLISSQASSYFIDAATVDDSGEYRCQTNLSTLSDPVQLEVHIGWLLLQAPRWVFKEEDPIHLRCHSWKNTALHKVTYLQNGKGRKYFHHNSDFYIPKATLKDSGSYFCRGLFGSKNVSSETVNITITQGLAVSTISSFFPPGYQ
Described as above. On the procedure: as §1

The target of test [5] is T5, FcgRIIaR (human, UniProt P12318 34-217).
T5 construct: extracellular domain; Soluble extracellular domain with C-terminal His tag; also called FcγRIIa R; FcγRIIa type R; not shown: His tag attached to the C terminus
T5 sequence (looked up): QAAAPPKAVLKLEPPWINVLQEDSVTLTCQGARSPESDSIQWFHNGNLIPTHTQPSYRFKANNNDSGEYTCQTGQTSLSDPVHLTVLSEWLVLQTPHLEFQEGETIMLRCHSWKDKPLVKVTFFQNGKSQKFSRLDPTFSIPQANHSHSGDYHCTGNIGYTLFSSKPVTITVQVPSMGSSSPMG
The test is described as above. Here is the method:
as §1

Test [6] concerns the target T6, FcgRIa (human, UniProt P12314 16-292).
T6 construct: extracellular domain; Soluble extracellular domain with C-terminal His tag, expressed in FreeStyle293 cells; also called FcγRIa; FcγRI; not shown: His tag attached to the C terminus
The test is described as above. Here is the method:
as §1

In test [7] the target is T1, FcgRIIaH. Kind of test: SPR (Biacore), antibody captured, FcgR as analyte. On the procedure: (§2) Analysis of interaction between obj ective antibody and the FcγR was carried out using Biacore T100 (GE Healthcare), Biacore T200, Biacore A100, and Biacore 4000. HBS-EP+ (GE Healthcare) was used as the running buffer, and the measurement temperature was set to 25° C. Chips produced by immobilizing the antigen peptide by the amine coupling method to a Series S sensor Chip CM5 (GE Healthcare), chips produced by allowing preliminarily biotinylated antigen peptides to interact with and immobilize onto a Series S Sensor Chip SA (certified) (GE Healthcare), chips produced by immobilizing Protein L (ACTIGEN, BioVision) to Series S Sencor Chip CM5 (GE Healthcare), or chips produced by immobilizing Protein A/G (Thermo Scientific) to Series S Sencor Chip CM5 (GE Healthcare) were used. Antibodies of interest were captured onto these chips, and allowed to interact to each FcγR diluted with running buffer. To regenerate and repeatedly use the chip, the antibodies captured onto the chip were washed off by reacting 10 mM glycine-HCl, pH 1.5.

Test [8] deals with T2, FcgRIIb. As to the kind of experiment: SPR (Biacore), antibody captured, FcgR as analyte. On the procedure: as §2
In test [9] the target is T3, FcgRIIIaV. Kind of test: SPR (Biacore), antibody captured, FcgR as analyte. On the procedure: as §2
In test [10] the target is T4, FcgRIIIaF. Kind of test: SPR (Biacore), antibody captured, FcgR as analyte. On the procedure:
as §2

For test [11], the target named is T5, FcgRIIaR. As to the kind of experiment: SPR (Biacore), antibody captured, FcgR as analyte. On the procedure:
as §2

In test [12] the target is T6, FcgRIa. As to the kind of experiment: SPR (Biacore), antibody captured, FcgR as analyte. On the procedure:
as §2

T3 sequence (P08637 17-208 F176V limits assumed): as the sequence (P08637 17-208) above, with F160V counted along it
T6 sequence (P12314 16-292): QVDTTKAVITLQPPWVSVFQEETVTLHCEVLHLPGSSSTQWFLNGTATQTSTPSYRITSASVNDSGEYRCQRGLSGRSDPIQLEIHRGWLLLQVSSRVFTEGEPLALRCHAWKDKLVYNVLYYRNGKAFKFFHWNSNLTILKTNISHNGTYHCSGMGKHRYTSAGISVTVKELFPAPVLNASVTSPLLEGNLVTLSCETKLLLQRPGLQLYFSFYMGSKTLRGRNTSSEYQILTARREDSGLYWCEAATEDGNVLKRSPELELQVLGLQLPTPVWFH

B1: H240-Kn120/H240-Hl068/L73-k0 (antibody, human IgG1, kappa)
heavy 1: QDQLVQSGAEVKKPGASVKVSCKASGFNIKDTYIQWVRQAPGQGLEWMGRIDPLRKQTKYREKFEGRVTITADTSTNTAYMELSSLRSEDTAVYYCVRSGREFDYWGQGTLVTVSSASTKGPSVFPLAPSSKSTSGGTAALGCLVKDYFPEPVTVSWNSGALTSGVHTFPAVLQSSGLYSLSSVVTVPSSSLGTQTYICNVNHKPSNTKVDKKVEPKSCDKTHTCPPCPAPEYYWGPMVFLFPPKPKDTLMISRTPEVTCVVVDVSDEDPEVKFNWYVDGVEVHNAKTKPREEQYNATYRVVSVLTVLHQDWLNGKEYKCKVSNKDLPAPIEKTISKAKGQPREPQVCTLPPSRDELTKNQVSLWCLVKGFYPSDIAVEWESNGQPENNYKTTPPVLDSDGSFFLYSKLTVDKSRWQQGNVFSCSVMHEALHNHYTQKSLSLSP
heavy 2: QDQLVQSGAEVKKPGASVKVSCKASGFNIKDTYIQWVRQAPGQGLEWMGRIDPLRKQTKYREKFEGRVTITADTSTNTAYMELSSLRSEDTAVYYCVRSGREFDYWGQGTLVTVSSASTKGPSVFPLAPSSKSTSGGTAALGCLVKDYFPEPVTVSWNSGALTSGVHTFPAVLQSSGLYSLSSVVTVPSSSLGTQTYICNVNHKPSNTKVDKKVEPKSCDKTHTCPPCPAPELLGGPSVFLFPPKPKDTLMISRTPEVTCVVVDVSHEEPEVKFNWYVDGVEVHNAKTKPREEQYNSTYRVVSVLTVLHQDWLNGKEYKCKVSNDALPKPIEETISKAKGQPREPQVYTLPPSRCELTKNQVSLSCAVKGFYPSDIAVEWESNGQPENNYKTTPPVLDSDGSFFLVSKLTVDKSRWQQGNVFSCSVMHEALHNHYTQKSLSLSP
light: DIQMTQSPSSLSASVGDRVTITCRASQDIHKYIAWYQQKPGQAPRLLIQYTSTLQPGVPSRFSGSGSGTDYTFTISSLQPEDIATYYCLQYEQLRTFGGGTKVEIKRTVAAPSVFIFPPSDEQLKSGTASVVCLLNNFYPREAKVQWKVDNALQSGNSQESVTEQDSKDSTYSLSSTLTLSKADYEKHKVYACEVTHQGLSSPVTKSFNRGEC
notes: Heterodimerized anti-epiregulin IgG1 antibody (knobs-into-holes); also called H240-Kn120/H240-HI068/L73-k0
As usually defined, the Kd is the free concentration of one partner at which half of the binding sites on the other are occupied at equilibrium, for simple one-to-one binding. On to B1, for which the “Relative KD” value with FcgRIIaH [1], with FcgRIIb [2], in the test with FcgRIIIaV [3], in the test with FcgRIIIaF [4], with FcgRIIaR [5] and with FcgRIa [6] was 1 throughout. For the same molecule, the Kd was 41 nM in the test with FcgRIIaH [7]; 150 nM with FcgRIIb [8]; 0.36 nM in the test with FcgRIIIaV [9]; 2.2 nM with FcgRIIIaF [10]; 20 nM with FcgRIIaR [11]; 0.16 nM with FcgRIa [12].

B2: H240-Kn120/H240-Hl150/L73-k0 (antibody, human IgG1, kappa)
heavy 1: QDQLVQSGAEVKKPGASVKVSCKASGFNIKDTYIQWVRQAPGQGLEWMGRIDPLRKQTKYREKFEGRVTITADTSTNTAYMELSSLRSEDTAVYYCVRSGREFDYWGQGTLVTVSSASTKGPSVFPLAPSSKSTSGGTAALGCLVKDYFPEPVTVSWNSGALTSGVHTFPAVLQSSGLYSLSSVVTVPSSSLGTQTYICNVNHKPSNTKVDKKVEPKSCDKTHTCPPCPAPEYYWGPMVFLFPPKPKDTLMISRTPEVTCVVVDVSDEDPEVKFNWYVDGVEVHNAKTKPREEQYNATYRVVSVLTVLHQDWLNGKEYKCKVSNKDLPAPIEKTISKAKGQPREPQVCTLPPSRDELTKNQVSLWCLVKGFYPSDIAVEWESNGQPENNYKTTPPVLDSDGSFFLYSKLTVDKSRWQQGNVFSCSVMHEALHNHYTQKSLSLSP
heavy 2: QDQLVQSGAEVKKPGASVKVSCKASGFNIKDTYIQWVRQAPGQGLEWMGRIDPLRKQTKYREKFEGRVTITADTSTNTAYMELSSLRSEDTAVYYCVRSGREFDYWGQGTLVTVSSASTKGPSVFPLAPSSKSTSGGTAALGCLVKDYFPEPVTVSWNSGALTSGVHTFPAVLQSSGLYSLSSVVTVPSSSLGTQTYICNVNHKPSNTKVDKKVEPKSCDKTHTCPPCPAPELLGGPSVFLFPPKPKDTLMISRTPEVTCVVVDVSHEEPEVKFNWYVDGVEVHNAKTKPREEQYNSTYRVVSVLTVLHQDWLNGKEYKCKVSNDALPKPTEETISKAKGQPREPQVYTLPPSRCELTKNQVSLSCAVKGFYPSDIAVEWESNGQPENNYKTTPPVLDSDGSFFLVSKLTVDKSRWQQGNVFSCSVMHEALHNHYTQKSLSLSP
light: DIQMTQSPSSLSASVGDRVTITCRASQDIHKYIAWYQQKPGQAPRLLIQYTSTLQPGVPSRFSGSGSGTDYTFTISSLQPEDIATYYCLQYEQLRTFGGGTKVEIKRTVAAPSVFIFPPSDEQLKSGTASVVCLLNNFYPREAKVQWKVDNALQSGNSQESVTEQDSKDSTYSLSSTLTLSKADYEKHKVYACEVTHQGLSSPVTKSFNRGEC
notes: Heterodimerized anti-epiregulin IgG1 antibody; I332T introduced into H240-Hl068; also called H240-Kn120/H240-HI150/L73-k0
With B2, the “Relative KD” value with FcgRIIaH [1] was 1.2; in the test with FcgRIIb [2], 1.5; in the test with FcgRIIIaV [3], 0.6; with FcgRIIIaF [4] it was 0.7; with FcgRIIaR [5], 1; with FcgRIa [6], 0.4. The Kd was found to be 35 nM with FcgRIIaH [7]; 98 nM in the test with FcgRIIb [8]; 0.57 nM with FcgRIIIaV [9]; 3 nM with FcgRIIIaF [10]; 20 nM with FcgRIIaR [11]; 0.39 nM with FcgRIa [12].
